Source: paper PMC7036032 (Molecular cell, 2019)
Each block holds one binder with its values, some of them ahead of it.

Experiments:
[1] = biological target: T1, human CPSF160-WDR33 (1-572) complex (human, UniProt Q10570 1-1443; Q9C0J8 1-572); assay: pull-down
[2] = biological target: T1, human CPSF160-WDR33 (1-572) complex; assay: SEC
[3] = biological target: T1, human CPSF160-WDR33 (1-572) complex; assay: cryo-EM structure

T1 sequence (Q10570 whole entry, chain 1 of 2): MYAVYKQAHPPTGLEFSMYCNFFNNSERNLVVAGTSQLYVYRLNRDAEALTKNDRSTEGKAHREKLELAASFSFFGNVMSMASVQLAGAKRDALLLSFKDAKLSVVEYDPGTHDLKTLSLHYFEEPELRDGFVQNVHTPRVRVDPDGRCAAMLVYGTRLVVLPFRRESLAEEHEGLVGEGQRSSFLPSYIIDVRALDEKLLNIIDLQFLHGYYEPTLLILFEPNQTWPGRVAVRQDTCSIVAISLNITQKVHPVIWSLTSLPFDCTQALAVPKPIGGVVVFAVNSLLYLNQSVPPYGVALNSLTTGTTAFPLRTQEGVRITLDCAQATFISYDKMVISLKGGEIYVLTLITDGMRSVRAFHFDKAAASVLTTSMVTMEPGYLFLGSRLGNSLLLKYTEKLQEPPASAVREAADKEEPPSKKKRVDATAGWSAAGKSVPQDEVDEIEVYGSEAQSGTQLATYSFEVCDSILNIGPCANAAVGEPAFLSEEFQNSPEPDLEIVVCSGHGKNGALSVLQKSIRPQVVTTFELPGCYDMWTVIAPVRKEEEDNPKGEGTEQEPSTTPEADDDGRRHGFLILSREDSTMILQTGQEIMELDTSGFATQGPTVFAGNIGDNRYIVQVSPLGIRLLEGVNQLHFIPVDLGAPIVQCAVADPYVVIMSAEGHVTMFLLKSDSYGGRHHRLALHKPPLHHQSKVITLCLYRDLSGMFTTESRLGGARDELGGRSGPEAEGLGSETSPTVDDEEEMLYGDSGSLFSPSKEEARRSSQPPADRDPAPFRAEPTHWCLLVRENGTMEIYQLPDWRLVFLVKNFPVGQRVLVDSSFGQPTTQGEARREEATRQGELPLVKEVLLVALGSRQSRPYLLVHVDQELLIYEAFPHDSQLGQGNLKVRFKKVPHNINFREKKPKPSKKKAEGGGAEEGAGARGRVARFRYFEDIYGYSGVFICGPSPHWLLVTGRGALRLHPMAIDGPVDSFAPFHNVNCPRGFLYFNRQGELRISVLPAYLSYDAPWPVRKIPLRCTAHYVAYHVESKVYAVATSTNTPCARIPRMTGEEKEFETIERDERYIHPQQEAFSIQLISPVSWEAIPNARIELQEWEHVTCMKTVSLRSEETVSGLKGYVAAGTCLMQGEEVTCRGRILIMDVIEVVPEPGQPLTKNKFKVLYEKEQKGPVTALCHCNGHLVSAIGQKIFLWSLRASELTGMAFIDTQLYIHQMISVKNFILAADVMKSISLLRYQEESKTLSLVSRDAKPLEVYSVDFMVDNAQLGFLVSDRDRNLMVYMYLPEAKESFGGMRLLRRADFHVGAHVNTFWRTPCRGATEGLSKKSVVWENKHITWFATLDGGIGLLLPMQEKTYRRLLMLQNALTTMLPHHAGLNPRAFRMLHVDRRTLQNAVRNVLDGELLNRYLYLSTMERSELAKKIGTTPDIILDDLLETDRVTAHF
T1 sequence (Q9C0J8 1-572, chain 2 of 2): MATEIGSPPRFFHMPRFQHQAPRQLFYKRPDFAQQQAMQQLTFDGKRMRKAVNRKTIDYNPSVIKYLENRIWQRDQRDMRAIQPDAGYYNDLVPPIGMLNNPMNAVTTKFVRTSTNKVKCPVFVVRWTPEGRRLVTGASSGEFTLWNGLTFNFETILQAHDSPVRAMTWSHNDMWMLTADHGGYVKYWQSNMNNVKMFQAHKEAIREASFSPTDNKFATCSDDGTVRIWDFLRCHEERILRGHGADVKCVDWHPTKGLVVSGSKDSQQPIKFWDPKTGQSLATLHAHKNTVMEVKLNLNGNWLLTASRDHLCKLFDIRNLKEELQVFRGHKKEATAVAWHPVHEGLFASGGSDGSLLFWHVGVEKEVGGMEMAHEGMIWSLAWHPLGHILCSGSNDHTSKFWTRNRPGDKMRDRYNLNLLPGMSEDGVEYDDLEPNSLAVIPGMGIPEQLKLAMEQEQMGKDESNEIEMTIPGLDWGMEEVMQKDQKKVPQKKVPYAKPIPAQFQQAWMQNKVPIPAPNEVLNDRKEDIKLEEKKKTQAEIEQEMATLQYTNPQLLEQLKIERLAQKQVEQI

binding result [1]: binds
B1: MBP-CPSF100 (full length) (natural protein, human, UniProt Q9P2I0 1-782, looked up)
chain: MTSIIKLTTLSGVQEESALCYLLQVDEFRFLLDCGWDEHFSMDIIDSLRKHVHQIDAVLLSHPDPLHLGALPYAVGKLGLNCAIYATIPVYKMGQMFMYDLYQSRHNTEDFTLFTLDDVDAAFDKIQQLKFSQIVNLKGKGHGLSITPLPAGHMIGGTIWKIVKDGEEEIVYAVDFNHKREIHLNGCSLEMLSRPSLLITDSFNATYVQPRRKQRDEQLLTNVLETLRGDGNVLIAVDTAGRVLELAQLLDQIWRTKDAGLGVYSLALLNNVSYNVVEFSKSQVEWMSDKLMRCFEDKRNNPFQFRHLSLCHGLSDLARVPSPKVVLASQPDLECGFSRDLFIQWCQDPKNSIILTYRTTPGTLARFLIDNPSEKITEIELRKRVKLEGKELEEYLEKEKLKKEAAKKLEQSKEADIDSSDESDIEEDIDQPSAHKTKHDLMMKGEGSRKGSFFKQAKKSYPMFPAPEERIKWDEYGEIIKPEDFLVPELQATEEEKSKLESGLTNGDEPMDQDLSDVPTKCISTTESIEIKARVTYIDYEGRSDGDSIKKIINQMKPRQLIIVHGPPEASQDLAECCRAFGGKDIKVYMPKLHETVDATSETHIYQVRLKDSLVSSLQFCKAKDAELAWIDGVLDMRVSKVDTGVILEEGELKDDGEDSEMQVEAPSDSSVIAQQKAMKSLFGDDEKETGEESEIIPTLEPLPPHEVPGHQSVFMNEPRLSDFKQVLLREGIQAEFVGGVLVCNNQVAVRRTETGRIGLEGCLCQDFYRIRDLLYEQYAIV

binding result [1]: binds
Binder: SYPMFPAPEERIKWDEYGEIIKPEDFL (domain or fragment, human, UniProt Q9P2I0 460-486, looked up) [MBP-CPSF100 (460-486)]

binding result [2]: binds
B2: human CPSF30-Fip1(1-243) complex (complex)
chain 1: MQEIIASVDHIKFDLEIAVEQQLGAQPLPFPGMDKSGAAVCEFFLKAACGKGGMCPFRHISGEKTVVCKHWLRGLCKKGDQCEFLHEYDMTKMPECYFYSKFGECSNKECPFLHIDPESKIKDCPWYDRGFCKHGPLCRHRHTRRVICVNYLVGFCPEGPSCKFMHPRFELPMGTTEQPPLPQQTQPPAKQRTPQVIGVMQSQNSSAGNRGPRPLEQVTCYKCGEKGHYANRCTKGHLAFLSGQ
chain 2: MSAGEVERLVSELSGGTGGDEEEEWLYGGPWDVHVHSDLAKDLDENEVERPEEENASANPPSGIEDETAENGVPKPKVTETEDDSDSDSDDDEDDVHVTIGDIKTGAPQYGSYGTAPVNLNIKTGGRVYGTTGTKVKGVDLDAPGSINGVPLLEVDLDSFEDKPWRKPGADLSDYFNYGFNEDTWKAYCEKQKRIRMGLEVIPVTSTTNKITAEDCTMEVTPGAEIQDGRFNLFKVQQGRTGN

binding result [3]: binds
B3: CPSF30 (isoform 2) (natural protein, human, UniProt O95639-2 1-244, looked up)
chain: B2 chain 1
